Results published in IntAct's records for PubMed 16456538.

B1: Uncharacterized protein TRE1 (Saccharomyces cerevisiae), Q08919 (parent)
chain: MVNTRGYTTLPNVEEPANNSQDELNSQDFEQAIGMPSEPPVYVEEMGMEEPQAPEAFSEKVQRFRMCFENNVVIPVKKNVVDPLAQMISLASEKFDLFLSKIGNVMVMRRIFYIMMMSIIAALIIASDRLPNGKARGSNGSFSDHDLLLQYARKSIDLSKIERDLEYISSMPHMSGTSGDAAIRHYIKESFDKNGIRLAGEEEFMAYSNYPGNVSLRVYSKDDTEGFDIPLNEENFNPMSHNGQLNNIPVIYANKASLDDMASMQDQGLLNGDFILLVHYGDYVFQQMLTAQEYGAKAIIFISEPYQDNKDVIQMKSVALPQYGTGDALTPEWEGSIRDPIDATEAKCLPKIPSIPISANQGDKILAILSDTGVKFSNNLFSGSLNDCRLDLLVQTAIRERHPVHDIVGKIEGSEQAGRAIVIAAPRNSASYGTMYPSFGTVVLLSLIQLYQEMVYKFDWKPLRNIYFISFGGSEFNEAGATELMEKRTEALKSEIYTIIDVGQIGIWDDSNNLEIQCHPLLVDLFQKNMTSRKFNVKVDNVHQFGDWTPYLAQGIPVAIISSPGVMNREHPIYTVEDKFDFIKDKLRDKKKGEVLSEIMLYLVEKSLELIDDPFIPFSISNYVDFLSTTLKDLQKECPDTVNFDEVFLGTTLWENTKLQFEKWKSEWTELMYGAGTYIEPTIIAINRWSWNYLLSLIGVTQCLEEGLMDRTFYKNVIFGPKLWVDKGDPLRSWTFPEIRDTIAIKDWSSVQVQANTLGTILQNTARYFLENKNLHGINTNEF

Variants of: B1
Conditions: with rsp5_yeast RSP5, P39940
Sequence of rsp5_yeast RSP5, P39940 (P39940 whole entry): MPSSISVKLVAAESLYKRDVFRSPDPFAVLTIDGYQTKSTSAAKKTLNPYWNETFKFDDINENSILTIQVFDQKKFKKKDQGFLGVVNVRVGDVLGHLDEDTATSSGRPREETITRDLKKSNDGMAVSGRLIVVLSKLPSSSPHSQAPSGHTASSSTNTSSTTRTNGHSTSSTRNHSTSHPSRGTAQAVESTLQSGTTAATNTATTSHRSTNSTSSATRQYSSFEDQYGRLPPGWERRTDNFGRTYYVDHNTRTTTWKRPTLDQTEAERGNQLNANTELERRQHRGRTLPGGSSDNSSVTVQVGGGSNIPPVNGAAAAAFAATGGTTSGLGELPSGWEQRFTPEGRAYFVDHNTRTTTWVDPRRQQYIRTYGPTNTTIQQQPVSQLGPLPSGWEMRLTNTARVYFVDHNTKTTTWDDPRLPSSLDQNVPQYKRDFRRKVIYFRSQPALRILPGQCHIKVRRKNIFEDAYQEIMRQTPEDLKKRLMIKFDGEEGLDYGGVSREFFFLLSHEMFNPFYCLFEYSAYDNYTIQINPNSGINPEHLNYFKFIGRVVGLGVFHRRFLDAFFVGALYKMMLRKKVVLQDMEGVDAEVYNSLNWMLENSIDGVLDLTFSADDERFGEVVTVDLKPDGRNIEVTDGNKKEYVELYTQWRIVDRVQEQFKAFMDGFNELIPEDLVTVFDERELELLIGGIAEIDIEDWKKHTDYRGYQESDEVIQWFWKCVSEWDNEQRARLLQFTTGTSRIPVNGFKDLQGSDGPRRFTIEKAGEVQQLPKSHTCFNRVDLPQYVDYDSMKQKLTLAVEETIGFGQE

Variant | effect of a mutation on the interaction
V41A | disrupting interaction
Y42G | disrupting interaction

Variants of: B1
Conditions: with rsp5_yeast RSP5, P39940
Remark: another data set of the same source

Variant | effect of a mutation on the interaction
Y42G | decreasing interaction
